Measured values taken from paper doi:10.1101/2020.01.12.903617, “The peptide sensor motif stabilizes the outward-facing conformation of TmrAB” (bioRxiv, 2020).
Positions count from the first letter of the chain named. Numbers in names are those of the source. Each block holds one binder with its values, some of them ahead of it.

Legend:
[1] = target: T1, TmrA C416S/L290C (chain of the double cysteine mutant of cysteine-less WT TmrAB) (Thermus thermophilus, UniProt Q72J05 1-600, C416S | L290C); test: cross-linking; disulfide cross-linking of engineered cysteines: 1 uM TmrAB double cysteine mutants in SEC buffer, 0.5 mM copper phenanthroline, 68°C, without or with 5 mM ATP, 10 mM MgCl2 and/or 8 mM sodium orthovanadate; SDS-PAGE, ~150 kDa band of the cross-linked dimer; conditions: both partners purified
T1 construct: TmrA, Thermus thermophilus, the chain of TmrAB with the canonical Walker B motif; Cysteine-less template made by GenScript; co-expressed with the TmrB chain; also called C416S^TmrA/L290C^TmrA
T1 sequence: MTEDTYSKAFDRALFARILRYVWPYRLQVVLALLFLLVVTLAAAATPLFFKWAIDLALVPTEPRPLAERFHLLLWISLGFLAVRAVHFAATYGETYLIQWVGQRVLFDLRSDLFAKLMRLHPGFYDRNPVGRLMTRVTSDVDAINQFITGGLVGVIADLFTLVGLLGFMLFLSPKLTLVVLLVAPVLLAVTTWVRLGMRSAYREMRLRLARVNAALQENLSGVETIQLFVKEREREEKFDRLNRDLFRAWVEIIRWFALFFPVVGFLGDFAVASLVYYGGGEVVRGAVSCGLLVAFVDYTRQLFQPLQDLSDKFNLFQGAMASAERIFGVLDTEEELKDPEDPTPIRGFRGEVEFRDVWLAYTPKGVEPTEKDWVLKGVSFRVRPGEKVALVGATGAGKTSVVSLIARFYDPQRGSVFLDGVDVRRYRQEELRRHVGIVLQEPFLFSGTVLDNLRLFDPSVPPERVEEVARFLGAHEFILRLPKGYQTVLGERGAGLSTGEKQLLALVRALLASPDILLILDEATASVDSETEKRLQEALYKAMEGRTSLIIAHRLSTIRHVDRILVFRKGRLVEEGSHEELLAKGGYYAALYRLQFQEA

[2] = target: T2, TmrA G131A/C416S/L290C (chain of the double cysteine mutant of G131A^TmrA TmrAB) (Thermus thermophilus, UniProt Q72J05 1-600, G131A | C416S | L290C); test: as above; conditions: both partners purified
T2 construct: TmrA, Thermus thermophilus, the chain of TmrAB with the canonical Walker B motif; Cysteine-less template made by GenScript; co-expressed with TmrB V275C; also called PSM glycine mutant
T2 sequence: T1 sequence with G131A

binding result [1]: binds
B1: TmrB G116A/V275C (chain of the double cysteine mutant of G116A^TmrB TmrAB) (natural protein, Thermus thermophilus)
chain: MTGRSAAPLLRRLWPYVGRYRWRYLWAVLAGLVSIFFFVLTPYFLRLAVDAVQAGRGFGVYALAIVASAALSGLLSYAMRRLAVVASRQVEYDLRRDLLHHLLTLDRDFYHKHRVADLMNRLNTDLSAVREMVGPGILMGSRLSFLVLLAFLSMYAVNARLAFYLTLILPGIFLAMRFLLRLIDRRYREAQEVFDRISTLAQEAFSGIRVVKGYALERRMVAWFQDLNRLYVEKSLALARVEGPLHALLGFLMGFAFLTVLWAGGAMVVRGELSCGELVQFNAYLAQLTWPILGLGWVMALYQRGLTSLRRLFELLDEKPAIRDEDPLPLALEDLSGEVRFEGVGLKRDGRWLLRGLTLTIPEGMTLGITGRTGSGKSLLAALVPRLLDPSEGRVYVGGHEARRIPLAVLRKAVGVAPQEPFLFSETILENIAFGLDEVDRERVEWAARLAGIHEEILAFPKGYETVLGERGITLSGGQRQRVALARALAKRPKILILDDALSAVDAETEARILQGLKTVLGKQTTLLISHRTAALRHADWIIVLDGGRIVEEGTHESLLQAGGLYAEMDRLQKEVEA
notes: TmrB, Thermus thermophilus, the chain of TmrAB with the non-canonical Walker B motif; Co-expressed with TmrA C416S/L290C; The cloning paragraph prints G116A^TmrA, all other places G116A^TmrB; also called PSM glycine mutant

binding result [2]: binds
binding result [1]: binds
B2: TmrB V275C (chain of the double cysteine mutant of cysteine-less WT TmrAB) (natural protein, Thermus thermophilus)
chain: B1 chain with A116G
notes: TmrB, Thermus thermophilus, the chain of TmrAB with the non-canonical Walker B motif; Co-expressed with the TmrA chain; also called V275C^TmrB
